The target in assay [1] is T1, Aβ (1-42) peptide (UniProt P05067 672-713).
T1 construct: domain: Aβ (1-42) peptide; also called Aβ42
The assay is described as follows: ELISA, Aβ(1-42) coated. Background: An ELISA detects its analyte on a solid surface through an enzyme-linked reagent.
Method: (§1) Briefly, an ELISA plate was coated with an Aβ (1-42) peptide at 1 μg/mL in a coating buffer (0.2M sodium carbonate-bicarbonate buffer, pH 9.4), 100 μL/well at 4° C. overnight. The Aβ peptide was removed and the plate was washed three times with 250 μL/well of a washing buffer (PBST). The plate was then blocked with 200 μL/well of a blocking buffer (1% BSA in PBST) for 1 hour at room temperature, and washed two times with 250 μL/well of the washing buffer. To each well of the plate was added 100 μL of the antibody sample (3× serial dilution in the range of 3 ng/mL to 20 μg/mL) and incubated at room temperature for 1 hour. […] The plate was then washed three times with 250 μL/well of the washing buffer. HRP substrate (Amplex Red and H₂O₂) was prepared freshly with a developing buffer (3.6 mM Na₂HPO₄, 1.4 mM NaH₂PO₄, at pH7.2), and 100 μL of the HRP substrate was added to each well and incubated for 1-60 minutes. Signals were subsequently detected using a plate reader (Excitation wavelength=530 nm, Emission wavelength=590 nm, and cutoff wavelength =570 nm).

The target in assay [2] is T1, Aβ (1-42) peptide. The assay is described as follows: ELISA, Aβ(1-42) coated at 1 µg/mL, antibody titrated 3 ng/mL to 20 µg/mL.
Method: as §1
For another assay, the target named is T2, (EAR)3 peptide.
T2 construct: Synthetic substrate peptide coated on the ELISA plate
T2 peptide: EAREAREAR
Kind of assay: ELISA, (EAR)3 peptide coated, antibody at 100 µg/mL.

T1 sequence (P05067 672-713 limits assumed): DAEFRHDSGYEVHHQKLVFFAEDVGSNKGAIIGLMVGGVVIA

B1: hu3D6-D H1L1 (antibody, V domains shown)
VH: EVQLVESGGGLVQPGGSLRLSCAASGFTFSNYGMSWVRQAPDKRLEWVASIRSGGGRTYYSDNVKGRFTISRDNAKNTLYLQMNSLRAEDTALYYCVRYDHYSGSSDYWGQGTLVTVSS
VL: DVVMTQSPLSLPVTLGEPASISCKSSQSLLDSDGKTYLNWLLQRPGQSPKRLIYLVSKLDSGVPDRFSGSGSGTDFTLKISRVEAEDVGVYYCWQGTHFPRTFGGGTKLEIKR
notes: It was detected with goat anti-human IgG; also called hu3D6-D HIL1; humanized 3D6-D catabody
For B1, in the assay with Aβ (1-42) peptide [1], the binding result is “binds”.

B2: hu3D6-D H1L2 (antibody, V domains shown)
VH: EVQLVESGGGLVQPGGSLRLSCAASGFTFSNYGMSWVRQAPDKRLEWVASIRSGGGRTYYSDNVKGRFTISRDNAKNTLYLQMNSLRAEDTALYYCVRYDHYSGSSDYWGQGTLVTVSS
VL: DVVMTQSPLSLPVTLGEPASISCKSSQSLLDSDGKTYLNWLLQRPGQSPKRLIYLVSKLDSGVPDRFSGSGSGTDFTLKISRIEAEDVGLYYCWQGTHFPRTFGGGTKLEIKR
notes: It was detected with goat anti-human IgG; also called hu3D6-D HIL2; hu3D6-D HISL2
As for B2, the binding result in the assay with Aβ (1-42) peptide [1] is recorded as “binds”.

B3: bapineuzumab (antibody, V domains shown)
VH: EVQLLESGGGLVQPGGSLRLSCAASGFTFSNYGMSWVRQAPGKGLEWVASIRSGGGRTYYSDNVKGRFTISRDNAKNSLYLQMNSLRAEDTALYYCVRYDHYSGSSDYWGQGTLVTVSS
VL: YVVMTQSPLSLPVTPGEPASISCKSSQSLLDSDGKTYLNWLLQKPGQSPQRLIYLVSKLDSGVPDRFSGSGSGTDFTLKISRVEAEDVGVYYCWQGTHFPRTFGQGTKVEIKR
notes: also called humanized 3D6-Y; hu3D6-Y
As for B3, in the assay with Aβ (1-42) peptide [2], the binding result is “binds”.

B4: 3D6-D (antibody, V domains shown)
VH: EVKLVESGGGLVKPGASLKLSCAASGFTFSNYGMSWVRQNSDKRLEWVASIRSGGGRTYYSDNVKGRFTISRENAKNTLYLQMSSLKSEDTALYYCVRYDHYSGSSDYWGQGTTVTVSS
VL: not shown
notes: It was detected with anti-human IgG; also called 3D6-D antibody; 3D6-D catabody
For B4, in the assay with (EAR)3 peptide, the binding result was “binds”.

B5: 3D6 (antibody, V domains shown)
VH: EVKLVESGGGLVKPGASLKLSCAASGFTFSNYGMSWVRQNSDKRLEWVASIRSGGGRTYYSDNVKGRFTISRENAKNTLYLQMSSLKSEDTALYYCVRYDHYSGSSDYWGQGTTVTVSS
VL: not shown
notes: Non-catalytic anti-Aβ antibody, the parental murine antibody of bapineuzumab; An IgG1 isotype control and anti-human IgG detection were used; also called 3D6-Y; wild type 3D6 antibody
Take B5: the binding result with (EAR)3 peptide is reported as “binds”.
